Where two headings read alike, the source gives them in different places. Some results are limits rather than exact numbers.

Consider three molecules from publication doi:10.1101/2022.04.25.489454.

The target of assay [1] is full length human GFP-CLASP2α (human) (UniProt O75122). As to the kind of experiment: optical trap rupture force.
Assay [2] shares this target. As to the kind of experiment: TIRF microscopy of microtubules tethered to protein clusters on DNA origami.
Assay [3] has as its target stabilized microtubules polymerised from cow brain tubulin (cow (purified from cow brains)) (UniProt Q6B856). As to the kind of experiment: TIRF microscopy of GFP-protein decoration of immobilized microtubules.
For assay [4] the target is unchanged. Described as above. The source holds these as a separate data set.

In assay [1], “stabilized microtubules polymerised from cow brain tubulin (from UniProt Q6B856 1-445) (complex)” returned a pulling force at 50% survival of the attachment of 14 pN and a pulling force withstood without rupture (13 of 39 microtubules) of more than 15.2 pN. The same molecule returned a time for which half of the microtubules stay attached by their end in assay [2] of 4 h.

A word on the Kd: it is a measure of binding affinity in units of concentration. A lower Kd goes with a tighter complex. In the case of “full length human GFP-CLASP2α (from UniProt O75122-3 1-1515) (natural protein)”, in assay [3], the Kd was 500 pM and the end brightness turned out to be 594 a.u.

B1: GFP-L-TOG2-S (domain or fragment)
chain: KVPAPKTSGNPANSARKPGSAGGPKVGAGASKEGGAGAVDEDDFIKAFTDVPSIQIYSSRELEETLNKIREILSDDKHDWDQRANALKKIRSLLVAGAAQYDCFFQHLRLLDGALKLSAKDLRSQVVREACITVAHLSTVLGNKFDHGAEAIVPTLFNLVPNSAKVMATSGCAAIRFIIRHTHVPRLIPLITSNCTSKSVPVRRRSFEFLDLLLQEWQTHSLERHAAVLVETIKKGIHDADAEARVEARKTYMGLRNHFPGEAETLYNSLEPSYQKSLQTYLKSSGSVASLPQSDRSSSSSQESLNRPFSSKWSTANPSTVAGRVSAGSSKASSLPGSLQRSRSDIDVNAAAGAKAHHAAGQSVRSGRLGAGALNAGSYASLEDTSDKLDGTASEDGRVRAKLSAPLAGMGNAKADSRGRSRTKMVSQSQPGSRSGSPGRVLTTTALSTVSSGVQRVLVNSASAQKRSKIPRSQGCSREASPSRLSVARSSRIPRPSVSQGCSREASRESSRDTSPVRSFQPLGPGYGISQSS
Take B1: the end brightness in assay [4] is 757 a.u.
